Consider seven molecules from publication PMC3973318.

Like-named read-outs stand apart in the source and are kept apart here.

Holding throughout (test): EMSA
(In general: A gel shift assay detects complexes by their altered migration in electrophoresis.)

Data set [1] deals with T1, DRH-3 (Caenorhabditis elegans, UniProt Q93413 1-1119).
T1 sequence: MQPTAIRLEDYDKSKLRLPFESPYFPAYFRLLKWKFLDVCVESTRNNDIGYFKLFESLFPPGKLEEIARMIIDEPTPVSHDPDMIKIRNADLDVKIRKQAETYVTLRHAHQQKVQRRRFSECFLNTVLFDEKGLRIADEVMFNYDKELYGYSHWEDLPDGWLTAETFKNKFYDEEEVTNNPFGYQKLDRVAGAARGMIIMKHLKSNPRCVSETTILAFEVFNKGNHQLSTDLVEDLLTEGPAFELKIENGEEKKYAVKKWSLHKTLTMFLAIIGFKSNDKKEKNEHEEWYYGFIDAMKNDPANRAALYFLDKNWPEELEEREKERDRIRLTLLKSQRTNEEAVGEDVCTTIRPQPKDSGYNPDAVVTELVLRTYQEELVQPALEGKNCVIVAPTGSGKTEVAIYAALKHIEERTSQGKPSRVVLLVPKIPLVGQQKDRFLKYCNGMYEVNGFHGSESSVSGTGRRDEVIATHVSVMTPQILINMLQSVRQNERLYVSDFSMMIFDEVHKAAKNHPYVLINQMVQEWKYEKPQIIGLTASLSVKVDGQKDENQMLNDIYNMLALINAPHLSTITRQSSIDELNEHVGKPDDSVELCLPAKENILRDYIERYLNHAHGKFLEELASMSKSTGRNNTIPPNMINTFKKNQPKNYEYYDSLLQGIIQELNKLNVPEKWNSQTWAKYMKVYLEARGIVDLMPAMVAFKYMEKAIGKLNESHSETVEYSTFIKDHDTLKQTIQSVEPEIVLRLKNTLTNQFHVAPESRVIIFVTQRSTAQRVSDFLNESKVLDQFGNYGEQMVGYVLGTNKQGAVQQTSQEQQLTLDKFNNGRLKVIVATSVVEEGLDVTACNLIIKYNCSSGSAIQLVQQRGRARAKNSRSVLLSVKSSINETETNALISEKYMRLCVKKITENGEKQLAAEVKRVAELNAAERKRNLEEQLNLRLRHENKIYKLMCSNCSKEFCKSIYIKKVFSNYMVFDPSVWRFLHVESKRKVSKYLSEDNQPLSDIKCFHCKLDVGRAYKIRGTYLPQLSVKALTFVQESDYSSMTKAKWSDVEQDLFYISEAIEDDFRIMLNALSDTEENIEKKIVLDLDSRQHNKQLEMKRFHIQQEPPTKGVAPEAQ

The target in data set [2] is T1, DRH-3. This is another data set of the same source.
Data set [3] addresses T2, ΔN-DRH3 (Caenorhabditis elegans, UniProt Q93413 300-1119).
T2 sequence: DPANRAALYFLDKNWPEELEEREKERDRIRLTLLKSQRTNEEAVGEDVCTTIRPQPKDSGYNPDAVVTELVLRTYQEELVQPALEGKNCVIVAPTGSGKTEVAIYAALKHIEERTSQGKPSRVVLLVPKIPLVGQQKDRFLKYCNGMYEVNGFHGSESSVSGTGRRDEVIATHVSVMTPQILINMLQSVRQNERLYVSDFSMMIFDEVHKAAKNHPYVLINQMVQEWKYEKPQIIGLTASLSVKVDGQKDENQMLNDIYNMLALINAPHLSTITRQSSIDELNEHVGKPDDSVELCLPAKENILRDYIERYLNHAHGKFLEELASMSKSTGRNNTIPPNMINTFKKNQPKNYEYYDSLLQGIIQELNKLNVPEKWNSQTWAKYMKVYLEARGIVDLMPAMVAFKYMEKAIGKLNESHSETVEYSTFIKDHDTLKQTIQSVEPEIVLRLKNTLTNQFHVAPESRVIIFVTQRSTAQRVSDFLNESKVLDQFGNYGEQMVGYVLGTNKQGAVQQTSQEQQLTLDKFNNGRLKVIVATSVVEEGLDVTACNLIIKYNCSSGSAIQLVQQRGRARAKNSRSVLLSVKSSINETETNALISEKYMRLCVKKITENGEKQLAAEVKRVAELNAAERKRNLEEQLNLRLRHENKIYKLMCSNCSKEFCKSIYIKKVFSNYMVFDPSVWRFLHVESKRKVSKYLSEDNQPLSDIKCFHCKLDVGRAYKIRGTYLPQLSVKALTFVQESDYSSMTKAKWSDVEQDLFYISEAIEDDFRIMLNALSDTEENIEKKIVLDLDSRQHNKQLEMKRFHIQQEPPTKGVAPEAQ

In data set [4] the target is T2, ΔN-DRH3. This is another data set of the same source.
Data set [5] deals with T2, ΔN-DRH3. The source holds these as a separate data set.
Data set [6] concerns the target T1, DRH-3. This is another data set of the same source.
The target of data set [7] is T3, RIG-I (UniProt O95786 1-925).
T3 sequence: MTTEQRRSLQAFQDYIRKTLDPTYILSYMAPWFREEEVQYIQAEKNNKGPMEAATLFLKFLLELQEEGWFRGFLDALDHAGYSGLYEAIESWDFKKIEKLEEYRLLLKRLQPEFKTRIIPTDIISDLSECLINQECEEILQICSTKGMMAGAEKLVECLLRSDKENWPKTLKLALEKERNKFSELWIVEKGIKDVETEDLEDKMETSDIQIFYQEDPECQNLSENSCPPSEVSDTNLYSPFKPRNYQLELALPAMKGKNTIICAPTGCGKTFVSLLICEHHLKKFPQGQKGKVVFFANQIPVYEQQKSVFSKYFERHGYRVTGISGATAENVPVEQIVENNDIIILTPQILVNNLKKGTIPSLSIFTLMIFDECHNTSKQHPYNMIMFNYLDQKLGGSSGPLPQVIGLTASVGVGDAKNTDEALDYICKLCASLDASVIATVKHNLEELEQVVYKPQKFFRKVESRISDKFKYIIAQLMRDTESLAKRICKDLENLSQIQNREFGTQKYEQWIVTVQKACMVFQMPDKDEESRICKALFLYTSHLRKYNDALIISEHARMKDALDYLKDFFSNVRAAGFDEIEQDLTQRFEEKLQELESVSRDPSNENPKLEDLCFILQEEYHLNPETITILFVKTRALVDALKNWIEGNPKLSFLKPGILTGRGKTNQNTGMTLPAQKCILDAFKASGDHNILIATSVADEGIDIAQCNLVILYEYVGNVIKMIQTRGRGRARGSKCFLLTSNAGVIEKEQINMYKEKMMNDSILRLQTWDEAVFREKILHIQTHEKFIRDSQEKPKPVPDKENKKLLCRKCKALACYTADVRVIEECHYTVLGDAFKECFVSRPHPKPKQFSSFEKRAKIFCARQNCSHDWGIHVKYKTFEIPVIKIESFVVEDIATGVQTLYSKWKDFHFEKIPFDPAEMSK

Data set [8] has as its target T2, ΔN-DRH3. This is another data set of the same source.
Data set [9] addresses T4, MDA-5 (human, UniProt Q9BYX4 1-1025).
T4 sequence: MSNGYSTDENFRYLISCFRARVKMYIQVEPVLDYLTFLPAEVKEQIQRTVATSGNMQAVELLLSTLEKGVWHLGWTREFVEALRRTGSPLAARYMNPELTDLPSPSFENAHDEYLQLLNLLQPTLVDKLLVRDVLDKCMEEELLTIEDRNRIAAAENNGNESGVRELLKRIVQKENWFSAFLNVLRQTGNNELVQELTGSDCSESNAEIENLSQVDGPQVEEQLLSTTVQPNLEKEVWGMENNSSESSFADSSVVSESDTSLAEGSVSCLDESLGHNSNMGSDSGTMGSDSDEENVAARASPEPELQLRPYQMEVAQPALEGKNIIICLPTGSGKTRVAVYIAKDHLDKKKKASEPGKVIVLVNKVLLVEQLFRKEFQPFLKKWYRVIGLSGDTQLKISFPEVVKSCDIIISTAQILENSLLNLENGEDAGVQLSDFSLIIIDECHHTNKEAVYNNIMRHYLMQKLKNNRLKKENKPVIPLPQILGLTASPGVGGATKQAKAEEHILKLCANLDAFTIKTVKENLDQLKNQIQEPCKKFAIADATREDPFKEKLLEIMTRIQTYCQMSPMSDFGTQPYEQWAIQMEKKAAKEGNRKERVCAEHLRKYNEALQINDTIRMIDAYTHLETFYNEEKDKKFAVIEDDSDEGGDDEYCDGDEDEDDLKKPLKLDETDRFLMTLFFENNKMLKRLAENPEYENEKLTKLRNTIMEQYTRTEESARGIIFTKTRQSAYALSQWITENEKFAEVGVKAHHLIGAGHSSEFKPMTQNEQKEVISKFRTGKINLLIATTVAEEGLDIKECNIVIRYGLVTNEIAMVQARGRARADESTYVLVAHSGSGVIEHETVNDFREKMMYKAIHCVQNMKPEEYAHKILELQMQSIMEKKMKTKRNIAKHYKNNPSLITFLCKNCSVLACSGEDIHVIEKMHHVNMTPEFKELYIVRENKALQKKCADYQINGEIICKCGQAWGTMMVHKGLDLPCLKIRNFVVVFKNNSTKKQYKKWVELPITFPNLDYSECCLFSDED

B1: ds22 (dsRNA)
RNA 1: GGGUACAGACUGACUAGGAUCG
RNA 2: CGAUCCUAGUCAGUCUGUACCC
The Kd is the equilibrium constant for the complex coming apart. A higher Kd goes with lower affinity. In turn, B1 showed a Kd in [1] of 230 ± 7 nM.

B2: ds18 (dsRNA)
RNA 1: GGGUAUAGACUGACUAGG
RNA 2: CCUAGUCAGUCUAUACCC
In the case of B2, binding in data set [2] was put at a Kd of 679 ± 135 nM.

B3: dsPPP12 (dsRNA)
RNA 1: GCCCAGACCACC
RNA 2: GGUGGUCUGGGC
modifications: 5' triphosphate on top strand
In data set [3], B3 registered a Kd of 174 ± 12 nM.

B4: ds12 (dsRNA)
RNA 1: GCCCAGACCACC
RNA 2: GGUGGUCUGGGC
As to B4, the Kd in data set [4] is 522 ± 67 nM; in data set [2] it was 839 ± 53 nM.

B5: dsPPP25 (dsRNA)
RNA 1: GGGUAUAGACUGACUAGGAUCUCCC
RNA 2: GGGAGAUCCUAGUCAGUCUAUACCC
modifications: 5' triphosphate on top strand
With B5, binding in [5] was put at a Kd of 120 ± 6 nM.

B6: ds34 (dsRNA)
RNA 1: GGAGUGCAUCUCCUUCCCUCCUUUCCUUCUGGUC
RNA 2: GACCAGAAGGAAAGGAGGGAAGGAGAUGCACUCC
In data set [6], B6 came in with a Kd of 384 ± 19 nM.

B7: ds25 (dsRNA)
RNA 1: GGGUAUAGACUGACUAGGAUCUCCC
RNA 2: GGGAGAUCCUAGUCAGUCUAUACCC
Turning to B7, the Kd in [7] was determined as 38 ± 6 nM; in data set [8], 376 ± 5 nM; in data set [6], 218 ± 7 nM; in data set [9] it was 123 ± 4 nM.
